Earlier results, collected in article PMC10872408 (Structure (London, England : 1993), 2023).
pKd: −log10 of the molar value.

Target: Gαi3 (Rattus norvegicus) (UniProt P08753)
Settings: cited from earlier work

Chain of Gαi3 (Rattus norvegicus) (P08753 2-354): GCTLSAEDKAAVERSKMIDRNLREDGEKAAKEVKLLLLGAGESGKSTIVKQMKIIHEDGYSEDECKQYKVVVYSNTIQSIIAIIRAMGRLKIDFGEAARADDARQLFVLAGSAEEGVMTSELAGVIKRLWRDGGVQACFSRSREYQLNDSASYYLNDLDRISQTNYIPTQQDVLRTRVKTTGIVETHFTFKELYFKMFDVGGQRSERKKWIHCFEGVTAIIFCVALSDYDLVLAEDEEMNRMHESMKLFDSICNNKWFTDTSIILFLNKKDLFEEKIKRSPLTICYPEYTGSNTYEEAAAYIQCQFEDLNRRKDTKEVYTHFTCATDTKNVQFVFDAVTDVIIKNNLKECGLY
Chain of GINIP (Q9UPV7 2-400): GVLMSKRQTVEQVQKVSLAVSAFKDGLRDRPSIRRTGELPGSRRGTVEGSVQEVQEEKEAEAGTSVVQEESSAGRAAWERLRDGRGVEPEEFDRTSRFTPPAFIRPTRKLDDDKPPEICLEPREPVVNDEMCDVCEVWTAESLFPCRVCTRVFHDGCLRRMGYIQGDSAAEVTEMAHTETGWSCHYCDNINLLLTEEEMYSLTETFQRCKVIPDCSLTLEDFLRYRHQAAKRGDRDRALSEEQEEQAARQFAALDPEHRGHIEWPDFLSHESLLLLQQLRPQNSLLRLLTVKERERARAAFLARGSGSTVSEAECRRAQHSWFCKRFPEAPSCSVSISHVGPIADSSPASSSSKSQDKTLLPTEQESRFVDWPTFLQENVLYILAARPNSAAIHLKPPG

GINIP (from UniProt Q9UPV7)
pKd: 7.19
